Laboratory results published in PMC9402891, “Case report: Biochemical and clinical phenotypes caused by cysteine substitutions in the epidermal growth factor-like domains of fibrillin-1” (Frontiers in Genetics, 2022).
Values belong to the binder of their own block, whether it stands above or below them.

Target: T1, latent transforming growth factor beta-binding protein 1 fragment LTBP1^1141-1395 (LTBP1^cbEGF14cbEGF15) (human, UniProt Q14766-2 1141-1395)
T1 construct: LTBP1, residues 1141-1395: cbEGF14, TB3, EGF3 and cbEGF15 domains (the C-terminal region); the domains named are the C-terminal ones, which fits the short isoform; also called LTBP1 polypeptides
T1 sequence (looked up): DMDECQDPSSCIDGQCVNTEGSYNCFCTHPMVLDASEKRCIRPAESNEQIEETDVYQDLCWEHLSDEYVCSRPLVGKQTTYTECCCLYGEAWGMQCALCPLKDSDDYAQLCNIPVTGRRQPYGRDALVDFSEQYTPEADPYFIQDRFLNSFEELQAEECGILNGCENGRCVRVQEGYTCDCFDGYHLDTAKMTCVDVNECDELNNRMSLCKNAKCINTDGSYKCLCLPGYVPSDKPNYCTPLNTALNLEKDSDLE
Assay: SPR; immobilised partner not stated; running buffer 10 mM HEPES, 150 mM NaCl, 2 mM CaCl2, pH 7.4, 0.005% (v/v) Tween-20; regeneration 50 mM HCl; Biacore T200 (ProteOn system also named)
Conditions: both partners purified

- Kd: 1530 nM
B1: human fibrillin-1 fragment FBN1^113-287 (FBN1^E2cbEGF1), wild type (domain or fragment)
chain: not shown
notes: fibrillin-1, human, residues 113-287: EGF2, EGF3, Hyb1 and cbEGF1 domains; one of them ends in L288, which may be a residue from the vector; also called wild-type fibrillin-1 polypeptides

- Kd: 1230 nM
B2: human fibrillin-1 fragment FBN1^113-287+C160Y (FBN1^E2cbEGF1+C160Y) (domain or fragment)
chain: not shown
notes: fibrillin-1, human, residues 113-287 (EGF2, EGF3, Hyb1 and cbEGF1 domains) with the patient mutation C160Y (c.479G>A) in EGF3; also called mutant recombinant fibrillin-1 polypeptides
